Data set [1] in a line: Metabolism and clearance in normal mice (plasma and urine, LC MS/MS). The class given is in vivo. Conditions: mouse, in vivo; for dose excreted: iv, 117 mg/kg. On the procedure:
The metabolism and clearance of Suc-Ile-Ala-Leu-Dox was studied in normal mice. The mice were administered Suc-Ile-Ala-Leu-Dox at a single intravenous bolus dose of 117 mg/kg. Plasma samples were obtained at 1 and 4 hours. Plasma samples of 100 μl were transferred to microcentrifuge tubes (1.5 mL) and an internal standard of daunorubicin (20 μL at 0.5 mg/ml) was added together with acetonitrile (400 μl). The tubes were capped and briefly vortexed followed by centrifugation at 14,000 rpm. 420 μl from each tube was removed and dried in vacuo. Each sample was reconstituted in 65 μl 20 mM aqueous ammonium formate pH 4.5 buffer (AF) containing acetonitrile (20%) prior to analysis by reverse phase liquid chromatography in combination with tandem mass spectrometry (LC MS/MS).
Urine was collected at 2 and 24 hours post administration from pairs of mice in metabolic cages. Urine samples were diluted with AF containing acetonitrile (20%) to give a target analyte concentration within the practical range of the LC MS/MS assay. 30 μl of each diluted sample was placed in an Eppendorf tube (1.5 ml) and an internal standard of daunorubicin (20 μL at 0.5 mg/ml) was added together with 50 μl of AF containing acetonitrile (20%). Each sample was then analyzed by LC MS/MS.
An Agilent HP1100 HPLC with DAD detector and Chemstation software was coupled to a PE Sciex API 365 mass spectrometer with an electrospray ion source. HPLC was performed on a TSK-Gel Super ODS, […], 4.6×50 mm (TosoHaas) reversed phase column equipped with a […] C18 guard disc (Higgins Analytical) and stainless steel frit (Upchurch Scientific). Chromatography was performed at room temperature. The flow rate was 0.5 ml/min. Injection volume was 50 μL. Gradient elution was performed using a mobile phase of 20 mM aqueous AF pH 4.5 buffer with increasing amounts of acetonitrile. The API 365 was operated at 365° C. in a multiple reaction monitoring mode, set to monitor specific analyte parent-daughter ion pairs. Integration of chromatograms was performed by MacQuant software (PE Sciex) and quantitation of each analyte obtained by comparison to previously obtained calibration curves. Daunorubicin was used as an internal standard in all cases.
For the calculation of percent of administered dose, plasma volume was estimated to be 40% of blood volume, which was calculated as 7% of animal's body weight. At 2 and 24 hours the parent compound was detected in urine at 3.9% and 15.0% of the administered dose, showing that the kidney is a major organ of excretion for the prodrug (FIG. 17).
Plasma samples were obtained at 1 and 4 hours from separate mice. Urine was collected at 2 and 24 hours post administration from pairs of mice in metabolic cages. The plasma and urine samples were prepared and analyzed as described in Example 17.

The test system of data set [2] is Ramos cells (CD10pos). Kind of data set: cells. The note with it: 24 h. On the procedure: (§1) Suspension cells, BALL-1, Ramos and Namalwa cells were cultured in RPMI media containing 10% heat inactivated fetal calf serum (FCS). On the day of the study, the cells were collected, washed and resuspended at a concentration of 0.5×10^6 cells/ml in RPMI containing 10% FCS. 100 µl of cell suspension was added to 96 well plates. […] Finally 10 μl of a 100 μCi/ml ^3H-thymidine was added per well and the plates were incubated for 24 hours. The plates were harvested using a 96 well Harvester (Packard Instruments) and counted on a Packard Top Count counter. Four parameter logistic curves were fitted to the ^3H-thymidine incorporation as a function of drug molarity using Prism software to determine IC50 values.
(§2) The effect of two known inhibitors of CD10 on prodrug activity in Ramos, LNCaP and Ball-1 cells was evaluated. The IC50 of Suc-βAla-Ile-Ala-Leu-Dox was determined in the presence of increasing concentration of the CD10 inhibitors, phosphoramidon and thiorphan.

The subject of data set [3] is BALL-1 cells (CD10neg). Kind of data set: cells. The note with it: 24 h. As for the experimental part: as §1, §2

Each structure is given as a SMILES string.

These results are taken from patent publication US20050267016A1, “CD-10 activated prodrug compounds” (priority 2001, published 2005).

In the case of `COc1cccc2c1C(=O)c1c(O)c3c(c(O)c1C2=O)C[C@@](O)(C(=O)CO)C[C@@H]3O[C@H]1C[C@H](NC(=O)[C@H](CC(C)C)NC(=O)[C@H](C)N)[C@H](O)[C@H](C)O1` [Ala-Leu-Dox], the “Plasma (% adm. dose) 1 hr” value in data set [1] stood at 0.00 % adm. dose. Moreover, the “Plasma (% adm. dose) 4 hr” value in data set [1] amounted to 0.00 % adm. dose. For the same compound, the dose excreted in data set [1] (Urine (% adm. dose) 2 hr) and in data set [1] (Urine (% adm. dose) 24 hr) was 0% each time.

As for `COc1cccc2c1C(=O)c1c(O)c3c(c(O)c1C2=O)C[C@@](O)(C(=O)CO)C[C@@H]3O[C@H]1C[C@H](NC(=O)[C@@H](N)CC(C)C)[C@H](O)[C@H](C)O1` [Leu-Dox], the dose excreted was determined as 1.17% in data set [1] (Urine (% adm. dose) 2 hr) and 2.25% in data set [1] (Urine (% adm. dose) 24 hr).

Usually IC50 stands for the concentration that gives 50% inhibition. A low value points to higher potency. Regarding `COc1cccc2c1C(=O)c1c(O)c3c(c(O)c1C2=O)C[C@@](O)(C(=O)CO)C[C@@H]3O[C@H]1C[C@H](NC(=O)[C@H](CC(C)C)NC(=O)[C@H](Cc2ccc(O)cc2)NC(=O)[C@H](CC(C)C)NC(=O)CCC(=O)O)[C@H](O)[C@H](C)O1` [Suc-Leu-Tyr-Leu-Dox], the half-maximal inhibitory concentration (IC50) amounted to 20 µM in data set [2] and 17 µM in data set [3].
